Assay results taken from paper PMC11602132.

Target: Non-structural protein 15 (Nsp15) from SARS-CoV-2 (SARS-CoV-2)
Assay: SEC

“Non-structural protein 15 (Nsp15) from SARS-CoV-2 (enzyme)” was tested, and the stoichiometry N was 6.
